Test results published in US20050037947A1, “INHIBITION OF DRUG BINDING TO SERUM ALBUMIN” (priority 2003, published 2005).

Target: human serum albumin (Albuminar, Aventis) (human), P02768
Test: SPR (BIACORE 3000), serum albumin immobilised on CM5 chip, analyte injected; Req divided by molecular weight; reference GnRH-Fc

For QHWSYGLRPG (peptide, UniProt P01148 24-33, looked up, modifications not checked) [GnRH peptide (gonadotropin releasing hormone), P01148 24-33], the fold more bound (Req/MW) than GnRH-Fc was greater than 5 times.
